The text below walks through data of US9340788B2 (priority 2007, dated 2016).

Common to all, as to format: cell-based, Human cytomegalovirus
Data set [1] concerns HCMV. Nature of the data set: Plaque formation assay. The following applies: HEL; CMV-GFP MOI of 1; siRNA knockdown at time of infection; counted at 14 dpi. As for the experimental part:
HEL cells transfected with PDGFRα siRNA and control cultures were infected with CMV-GFP (MOI of 1), as described in FIG. 8. Unabsorbed viruses were washed and cells were returned to 37 C. 24 h later, supernatant was harvested and used to infect naïve HEL cultures (6 wells/condition) which were monitored daily for 14 days under the fluorescence microscope for plaque formation. Photomicrographs show representative examples of the CMV-GFP infected cells at 2 and 12 days post infection (2 dpi and 12 dpi, respectively). b. Average plaques counted in 4 separate low magnification fields for each well at 14 dpi. […] As receptor levels return to normal (12 dpi), few infected (green fluorescent) cells were detected in the PDGFRα siRNA treated cultures (a, lower right panel), without formation of plaques. Plaque formation assays were repeated twice. Average counts (n=12)±SD are shown.
Plaque Formation Assays. Plaque formation was assayed. Confluent HEL cells in 6 well cluster plates were incubated with Towne-GFP (MOI of 1, 1 hr) in 0.5 ml growth media. Cells were washed and returned to 37° C. (in complete growth media). 24 h later supernatant was harvested and used to infect naïve HEL cultures which were monitored for plaque formation for 6-14 days. […] At day 14, plaques in ten low magnification fields/condition were counted (each experimental condition was tested in 6 independent wells).

Data set [2] relates to HCMV. Nature of the data set: HCMV IE1 / viral gene expression, western blot of infected cells. The following applies: HEL; p110α knockdown vs non-targeting siRNA.
The test system of data set [3] is HCMV. Nature of the data set: HCMV pp65 western blot in HEL cells. The following applies: siRNA 48 h prior to HCMV MOI of 1, western blot 2 h post-infection, indicates viral entry not inhibited. As for the experimental part: HEL cells were transfected with siRNA against the PI3K p110α catalytic subunit (a mixture of 4 RNAi oligos, “smart pool” from Dharmacon) or non-targeting, control siRNA (Dharmacon) for 48 h prior to infection with HCMV (MOI of 1) for 1 hour. Cells were washed and cultured for 2 h-6 days. a. […] The mean number of IE1 positive cells is reduced by ˜50% in the PI3 Kp110α knockdown cultures—panel c**, p<0.01. PI3K p110α knock down is also significant (b, left panels, red fluorescence). However, unlike cells that lack a functional PDGFRα, PI3K p110α knock down cells are capable of producing infectious virus as shown by IE1 staining of the secondary infected cultures (panel d). A 10% decrease in infectious virus production in the cells treated with p110α siRNA is insignificant*, bars represent SD, […], panel c. Experiments were repeated twice, all conditions were assayed in triplicate. Similar results were obtained with both Towne-infected cultures (illustrated in this figure) and CMV-GFP.
Upper panel: HEL cells pretreated with anti-human PDGFRα antibody (10 ng/ml, for 30 min, clone AF-307-NA from R&D; lanes 1 and 4) or with AG 1295 (lane 3, […], from Calbiochem) were stimulated with Towne HCMV (lanes 2-4) or Mock infected (lane 1) for 10 min at 37 C. […]
Western Blot, Immunoprecipitation, and Immunofluorescence analyses. […] Cell lysates were analyzed by SDS-PAGE. […]

Entries after “also recorded” stand apart in the source; their conditions may differ.

B1: PDGFRα siRNA: "smart Pool" siRNA to hPDGFRα (Dharmacon), SEQ ID NO: 1-4 (nucleic acid)
chain 1: CGAGACUCCUGUAACCUUAUU
chain 2: GAGCUUCACCUAUCAAGUUUU
chain 3: GACAGUGGCCAUUAUACUAUU
chain 4: GAAUAGGGAUAGCUUCCUGUU
modifications: pool of four siRNAs, further chemistry not given here
With B1, the plaque formation result in the data set on HCMV [1] was “completely blocked; also recorded: No plaques were formed”.

B2: p110α siRNA: mixture of 4 RNAi oligos, "smart pool" from Dharmacon, against PI3K p110α, SEQ ID NO: 5-8 (nucleic acid)
chain 1: GCGAAAUUCUCACACUAUU
chain 2: GUGGUAAAGUUCCCAGAUA
chain 3: GCUUAGAGUUGGAGUUUGA
chain 4: GACCCUAGCCUUAGAUAAA
modifications: pool of four siRNAs, further chemistry not given here
With B2, in the data set with HCMV [2], the viral gene expression entry is reported as “delay”. In the data set on HCMV [3], the “pp65 HCMV expression” value is recorded as “unchanged”.
